Values of other authors in PMC12186298, “Phase 1 clinical trial of eneboparatide, a novel PTH receptor 1 agonist” (Endocrine Connections, 2025).

Test system: patients with hypoparathyroidism
Settings: not associated with increased elimination of phosphorus in urine; cited from earlier work
Protocol: Hyperphosphataemia enhances the risk of long-term development of cardiovascular diseases that is particularly important in patients with renal insufficiency, but also exists in patients with normal renal function ([16]). […] This decrease in sPh was apparent after 14 days of treatment in connection with a reduction in the rate of renal reabsorption of phosphorus. The impact of eneboparatide on sPh was primarily observed within the first 12 h after dosing.

B1: PTH(1–84): parathyroid hormone (1–84) therapy, cited comparator (protein, UniProt P01270 32-115, looked up)
Parathyroid hormone: SVSEIQLMHNLGKHLNSMERVEWLRKKLQDVHNFVALGAPLAPRDAGSQRPRKKEDNVLVESHEKSLGEADKADVNVLTKAKSQ
modifications: Parathyroid hormone
notes: parathyroid hormone (1–84) therapy, cited comparator
  sPh after the onset of therapy: decreased rapidly and significantly
